Data on four molecules can be found in US20170209564A1.

For experiment [1], the target named is FL HA H1N1 (influenza A virus H1N1). The experiment is described as follows: SEC-MALS of FL HA with Fab; theoretical value for trimer with 3 Fabs in brackets.
The target in another experiment is s6E12. The experiment is described as follows: SEC-MALS of polypeptide with Fab. The following applies: remark: other sources report otherwise.
A further experiment deals with s74H9. The experiment is described as follows: SEC-MALS of polypeptide with Fab. The note with it: remark: other sources report otherwise. (Size exclusion chromatography separates by hydrodynamic size, large species first.)
The next experiment concerns the target s86B4. The experiment is described as follows: SEC-MALS of polypeptide with Fab. The note with it: remark: other sources report otherwise.
The target in another experiment is s55G7. The experiment is described as follows: SEC-MALS of polypeptide with Fab. The note with it: remark: other sources report otherwise.
Another experiment concerns the target s127H1. The experiment is described as follows: SEC-MALS of polypeptide with Fab. The note with it: remark: other sources report otherwise.
For another experiment, the target named is sH1 mini-HA GW1.5E2-FFH. The following applies: remark: other sources report otherwise.
The target in experiment [2] is T1, sH1 mini-HA GW1.5E2-FFH (Influenza A virus H1N1 A/Brisbane/59/2007). The experiment is described as follows: SEC-MALS with Fab fragments. The note with it: remark: other sources report otherwise.
Experiment [3] addresses T1, sH1 mini-HA GW1.5E2-FFH (Influenza A …). The experiment is described as follows: biolayer interferometry (Octet), apparent Kd; CR6261. The note with it: remark: other sources report otherwise. In general terms: In BLI a coated tip is dipped into the sample, and binding shifts an interference pattern.

In the case of Fab fragment of CR6261, the Mw of protein in complex with CRF6261, observed in experiment [1] was 396 kDa.

In experiment [1], Fab fragment of CR9114 had a Mw of protein in complex with CRF9114, observed of 343 kDa.

B1: Fab fragment of CR6261 (Fab, V domains shown)
VH: EVQLVESGAEVKKPGSSVKVSCKASGGPFRSYAISWVRQAPGQGPEWMGGIIPIFGTTKYAPKFQGRVTITADDFAGTVYMELSSLRSEDTAMYYCAKHMGYQVRETMDVWGKGTTVTVSS
VL: QSVLTQPPSVSAAPGQKVTISCSGSSSNIGNDYVSWYQQLPGTAPKLLIYDNNKRPSGIPDRFSGSKSGTSATLGITGLQTGDEANYYCATWDRRPTAYVVFGGGTKLTVLG
Turning to B1, the MW complex with CR6261, observed in the experiment with s6E12 is 67 kDa; with s74H9, 72 kDa; with s86B4, 75 kDa; in the experiment with s55G7, 66 kDa; with s127H1, 74 kDa. This molecule gave a Mw of protein in complex with CRF6261, observed in the experiment with sH1 mini-HA GW1.5E2-FFH of 201 kDa. The molecule further showed a Fab fragments bound per trimer (Fab fragments per trimer) in experiment [2] of 3.

B2: monoclonal antibody CR6261 (antibody, V domains shown)
VH: EVQLVESGAEVKKPGSSVKVSCKASGGPFRSYAISWVRQAPGQGPEWMGGIIPIFGTTKYAPKFQGRVTITADDFAGTVYMELSSLRSEDTAMYYCAKHMGYQVRETMDVWGKGTTVTVSS
VL: QSVLTQPPSVSAAPGQKVTISCSGSSSNIGNDYVSWYQQLPGTAPKLLIYDNNKRPSGIPDRFSGSKSGTSATLGITGLQTGDEANYYCATWDRRPTAYVVFGGGTKLTVLG
For the molecule B2, in [3], the Kd was found to be 1 nM.
